Results reported in article PMC7948472.
Like-named read-outs stand apart in the source and are kept apart here. Where no end group is shown, it is not given here. Me3 = trimethyl-lysine

Legend:
Fab C9 (rabbit) [1] = experiment: SPR; Biacore T200; each Fab immobilised on a CM5 chip by amine coupling; peptides injected at increasing concentrations; running buffer PBS with 0.005% Tween 20; global fitting of the curves, or steady-state analysis where kinetic parameters could not be determined (fast dissociation, low affinity)
Fab C9 (rabbit), sequence (heavy, as listed by the source, chain 1 of 2): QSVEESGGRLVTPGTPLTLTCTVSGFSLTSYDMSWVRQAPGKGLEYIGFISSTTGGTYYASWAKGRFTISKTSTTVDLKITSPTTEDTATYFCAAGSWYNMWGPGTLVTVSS
Fab C9 (rabbit), sequence (light, as listed by the source, chain 2 of 2): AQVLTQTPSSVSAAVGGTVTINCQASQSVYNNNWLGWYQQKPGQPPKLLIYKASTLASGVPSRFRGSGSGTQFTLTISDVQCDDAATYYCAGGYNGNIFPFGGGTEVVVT

Fab D6 (rabbit) [2] = experiment: as above
Fab D6 (rabbit), sequence (heavy, as listed by the source, chain 1 of 2): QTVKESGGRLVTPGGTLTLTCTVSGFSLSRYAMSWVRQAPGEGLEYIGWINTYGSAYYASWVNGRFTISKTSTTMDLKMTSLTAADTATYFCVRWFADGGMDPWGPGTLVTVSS
Fab D6 (rabbit), sequence (light, as listed by the source, chain 2 of 2): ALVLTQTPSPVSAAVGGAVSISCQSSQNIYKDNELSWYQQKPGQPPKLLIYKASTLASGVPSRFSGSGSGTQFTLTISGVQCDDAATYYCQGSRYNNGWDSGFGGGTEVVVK

F9, C9, E6, and D6 = experiment: SPR; Biacore T200; each Fab immobilised on a CM5 chip by amine coupling; increasing concentrations of free peptide injected; running buffer PBS with 0.005% Tween 20; global fit, steady-state analysis where dissociation was fast
Fab E10 (rabbit) [3] = experiment: SPR; Biacore T200; each Fab immobilised on a CM5 chip by amine coupling; peptides injected at increasing concentrations; running buffer PBS with 0.005% Tween 20; global fitting of the curves, or steady-state analysis where kinetic parameters could not be determined (fast dissociation, low affinity)
Fab C9 (rabbit) [4] = experiment: as above; remark: listed apart in the source
Fab D6 (rabbit) [5] = experiment: as above; remark: listed apart in the source
Fab E10 (rabbit) [6] = experiment: as above; remark: listed apart in the source
C9 Fab (rabbit) = experiment: SPR; Biacore T200; each Fab immobilised on a CM5 chip by amine coupling; increasing concentrations of free peptide injected; running buffer PBS with 0.005% Tween 20; global fit, steady-state analysis where dissociation was fast
D6 Fab (rabbit) = experiment: as above
E6 Fab (rabbit) = experiment: as above
E6 Fab (rabbit), sequence (heavy, as listed by the source, chain 1 of 2): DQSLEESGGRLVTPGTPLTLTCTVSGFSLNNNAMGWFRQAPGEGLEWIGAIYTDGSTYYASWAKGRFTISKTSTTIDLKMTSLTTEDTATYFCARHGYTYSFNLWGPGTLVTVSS
E6 Fab (rabbit), sequence (light, as listed by the source, chain 2 of 2): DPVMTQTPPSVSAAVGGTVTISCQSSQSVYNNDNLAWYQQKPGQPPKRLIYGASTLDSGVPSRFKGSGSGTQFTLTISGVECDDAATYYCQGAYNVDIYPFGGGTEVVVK

F9 Fab (rabbit) = experiment: as above
F9 Fab (rabbit), sequence (heavy, as listed by the source, chain 1 of 2): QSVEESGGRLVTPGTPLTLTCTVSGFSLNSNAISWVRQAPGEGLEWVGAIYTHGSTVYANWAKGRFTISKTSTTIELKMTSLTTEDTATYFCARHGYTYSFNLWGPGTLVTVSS
F9 Fab (rabbit), sequence (light, as listed by the source, chain 2 of 2): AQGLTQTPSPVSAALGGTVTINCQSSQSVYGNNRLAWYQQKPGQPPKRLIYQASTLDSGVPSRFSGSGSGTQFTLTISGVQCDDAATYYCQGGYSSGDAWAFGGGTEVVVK

Fab E6 (rabbit) = experiment: SPR; Biacore T200; each Fab immobilised on a CM5 chip by amine coupling; peptides injected at increasing concentrations; running buffer PBS with 0.005% Tween 20; global fitting of the curves, or steady-state analysis where kinetic parameters could not be determined (fast dissociation, low affinity)
Fab F9 (rabbit) = experiment: as above

Binder	Kd (Fab C9 (rabbit) [1])	Kd (Fab D6 (rabbit) [2])	Kd (F9, C9, E6, and D6)	Kd (Fab E10 (rabbit) [3])	Kd (Fab C9 (rabbit) [4])	Kd (Fab D6 (rabbit) [5])	Kd (Fab E10 (rabbit) [6])	Kd (C9 Fab (rabbit))	Kd (D6 Fab (rabbit))	Kd (E6 Fab (rabbit))	fold difference in association rate constant against F9 (E6 Fab (rabbit))	Kd (F9 Fab (rabbit))	koff (Fab C9 (rabbit) [1])	kon (Fab C9 (rabbit) [1])	koff (Fab D6 (rabbit) [2])	kon (Fab D6 (rabbit) [2])	koff (Fab E6 (rabbit))	kon (Fab E6 (rabbit))	koff (Fab F9 (rabbit))	kon (Fab F9 (rabbit))
NPIFEKFGK(Me3)GGTYP-NH2 [Methylated MAP3K2 peptide in which the C terminus was amidated]	0.0111 µM	0.0591 µM																		
NPIFEKFGKGGTYP [MAP3K2 peptide, …]	440 µM	140 µM	0.3 µM	40 µM	690 µM	180 µM	36 µM													
NPIFEKFGK(Me3)GGTYP [Methylated MAP3K2 peptide, …(me3)GGTYP]				37 µM			39 µM	0.014 µM	0.054 µM	0.0009 µM	> 100 fold	0.3 µM	0.006 s⁻¹	480000 M⁻¹ s⁻¹	0.096 s⁻¹	1.9e+06 M⁻¹ s⁻¹	0.0029 s⁻¹	3.4e+06 M⁻¹ s⁻¹	0.098 s⁻¹	330000 M⁻¹ s⁻¹
